In patent US11098306B1, “Promoters and uses thereof” (priority 2018, dated 2021):

Tested on: mCherry expression in E. coli
Experiment: Bulk mCherry fluorescence of E. coli strains (plate reader, normalized to OD600) after induction with phenolics
Assay type: cell-based
Conditions: for improved gene expression in comparison with PemrR: 1 mM coumaric acid; for improved gene expression in comparison with PemrR / fold change in comparison with PemrR / improvement of expression levels in comparison with PemrR: 24 h of induction; for fold change in comparison with PemrR: 5 mM coumaric acid; for improvement of expression levels in comparison with PemrR: 5 mM vanillic acid; for increase in fluorescence / protein expression in comparison with native promoter PemrR (control strain RIF01): induced with 5 mM vanillin, 12 h after induction, 30° C.
Method: Cell growth and bulk fluorescence measurements: For the fluorescence experiments, frozen stocks of the strains were used to inoculate 5 ml of LB medium containing 25 mg l^−1 chloramphenicol and incubated at 37° C. with an orbital shaking of 250 r.p.m. Overnight cultures were used to inoculate (0.1% volume/volume) an M9 salt medium containing 25 mg l^−1 chloramphenicol, 20 g l^−1 glucose, and 5 g l^−1 yeast extract. The M9 salt medium (Sigma-Aldrich) contains 6.78 g l^−1 Na2HPO4, 3 g l^−1 KH2PO4, 0.5 g l^−1 NaCl, 1 g l^−1 NH4Cl, 0.1 mM CaCl2), and 2 mM MgSO4. 200 μl cultures of each strain (in triplicates) were loaded into black 96-well plates (black polystyrene plates with flat pclear bottom from Greiner Bio-One) and covered with Breathe-Easier sealing membrane (Sigma).
The cultures were grown until mid-log phase at 37° C. and 250 rpm. The mid-log phase cells were induced with phenolics such as vanillin, coumaric acid, and vanillic acid at varying concentrations. The induced cells were incubated in a plate reader (Tecan Infinite 200 Pro) at 30° C. and a 3 mm shaking amplitude. The optical density of the cultures and the mCherry fluorescence was monitored at required intervals in the plate reader. Cell density was measured by monitoring the absorption of the cultures at 600 nm (OD600). Fluorescence was recorded using an excitation wavelength of 575±9 nm and an emission wavelength of 610±20 nm with a manual gain of 100 and a Z-position of 20,000 μm. Fluorescence readings are reported as normalized fluorescence given by the ratio of fluorescence of the cells to the OD600. The fold changes were reported as the ratio of fluorescence level of the strain with engineered promoter to the strain with the basal promoter.

## COc1cc(C(=O)O)ccc1O [Vanillic acid, vanillic acid, reference compound]
Strains RIF01-RIF04, effect emerged after 24 h
  induction of the promoters (PemrR, Pvtac, Pvtrc, Pvtic) by the phenolic: some level of induction

B1: Pvtac: engineered hybrid phenolic-inducible promoter, PemrR with spacer region of Ptac, SEQ ID NO:53 (nucleic acid)
DNA: GAATCATTTTTCTAAAACAATACATTTGACAATTAATCATCGGCTCGTATAATGATCGGCTGAAATTAATGAGGTCATACCCAAAT
modifications: expressed or natural sequence
  improved gene expression in comparison with PemrR: 10.4 fold
  fold change in comparison with PemrR: 7.1 fold
  improvement of expression levels in comparison with PemrR: 9.5 fold
  increase in fluorescence / protein expression in comparison with native promoter PemrR (control strain RIF01): 4.6 fold

B2: Pvtic: engineered hybrid phenolic-inducible promoter, PemrR with spacer region of Ptic, SEQ ID NO:55 (nucleic acid)
DNA: GAATCATTTTTCTAAAACAATACATTTGACAATTAATCATCGCGGCTCGTATAATGATCGGCTGAAATTAATGAGGTCATACCCAAAT
modifications: expressed or natural sequence
  improvement of expression levels in comparison with PemrR: 2.1 fold
  increase in fluorescence / protein expression in comparison with native promoter PemrR (control strain RIF01): 1.5 fold

B3: Pvtrc: engineered hybrid phenolic-inducible promoter, PemrR with spacer region of Ptrc, SEQ ID NO:54 (nucleic acid)
DNA: GAATCATTTTTCTAAAACAATACATTTGACAATTAATCATCCGGCTCGTATAATGATCGGCTGAAATTAATGAGGTCATACCCAAAT
modifications: expressed or natural sequence
  improved gene expression in comparison with PemrR: 8.5 fold
  fold change in comparison with PemrR: 6.4 fold
  improvement of expression levels in comparison with PemrR: 6.8 fold
  increase in fluorescence / protein expression in comparison with native promoter PemrR (control strain RIF01): 3.0 fold
